According to patent US20240132563A1:

Legend:
Assay in all cases: cell-based or functional assay
[1] = biological target: IL-18 polypeptide C143 (V11I, C38A, K53A, C76A, C127A) (human) (UniProt Q14116)
[2] = biological target: IL-18 polypeptide C144 (V11I, C38A, K53A, T63A, C76A, C127A) (human) (UniProt Q14116)
[3] = biological target: IL-18 polypeptide C145 (V11I, C38A, K53A, S55A, C76A, C127A) (human) (UniProt Q14116)
[4] = biological target: IL-18 polypeptide C146, SEQ ID NO: 68 (V11I, C38A, M51G, K53A, C76A, C127A) (human) (UniProt Q14116)
[5] = biological target: IL-18 polypeptide C147 (V11I, C38A, K53A, D54A, C76A, C127A) (human) (UniProt Q14116)
[6] = biological target: IL-18 polypeptide C148 (F2A, V11I, C38A, K53A, C76A, C127A) (human) (UniProt Q14116)
[7] = biological target: IL-18 polypeptide C149 (V11I, E31A, C38A, K53A, C76A, C127A) (human) (UniProt Q14116)
[8] = biological target: IL-18 polypeptide C150 (V11I, T34A, C38A, K53A, C76A, C127A) (human) (UniProt Q14116)
[9] = biological target: IL-18 polypeptide C151 (V11I, D35A, C38A, K53A, C76A, C127A) (human) (UniProt Q14116)
[10] = biological target: IL-18 polypeptide C152 (V11I, S36A, C38A, K53A, C76A, C127A) (human) (UniProt Q14116)
[11] = biological target: IL-18 polypeptide C153 (V11I, D37A, C38A, K53A, C76A, C127A) (human) (UniProt Q14116)
[12] = biological target: IL-18 polypeptide C154 (V11I, E31A, D37A, C38A, K53A, C76A, C127A) (human) (UniProt Q14116)
[13] = biological target: IL-18 polypeptide C155 (V11I, C38A, D40A, K53A, C76A, C127A) (human) (UniProt Q14116)
[14] = biological target: IL-18 polypeptide C156 (V11I, C38A, N41A, K53A, C76A, C127A) (human) (UniProt Q14116)
[15] = biological target: IL-18 polypeptide C157 (V11I, C38A, K53A, C76A, C127A, D132A) (human) (UniProt Q14116)
[16] = biological target: IL-18 polypeptide C158 (V11I, C38A, K53A, C76A, G108A, C127A) (human) (UniProt Q14116)
[17] = biological target: IL-18 polypeptide C159 (V11I, C38A, K53A, C76A, H109A, C127A) (human) (UniProt Q14116)
[18] = biological target: IL-18 polypeptide C160 (V11I, C38A, K53A, C76A, D110A, C127A) (human) (UniProt Q14116)
[19] = biological target: IL-18 polypeptide C161 (K8R, V11I, C38A, C76A, Q103E, C127A) (human) (UniProt Q14116)
[20] = biological target: IL-18 polypeptide C162 (K8E, V11I, C38A, C76A, Q103R, C127A) (human) (UniProt Q14116)
[21] = biological target: IL-18 polypeptide C163 (V11I, C38A, C76A, Q103K, C127A) (human) (UniProt Q14116)
[22] = biological target: IL-18 polypeptide C164 (V11I, C38A, S55H, C76A, C127A) (human) (UniProt Q14116)
[23] = biological target: IL-18 polypeptide C165 (V11I, C38A, S55R, C76A, C127A) (human) (UniProt Q14116)
[24] = biological target: IL-18 polypeptide C166 (V11I, C38A, S55T, C76A, C127A) (human) (UniProt Q14116)
[25] = biological target: IL-18 polypeptide C167 (V11I, C38A, C76A, S105I, C127A) (human) (UniProt Q14116)
[26] = biological target: IL-18 polypeptide C168 (V11I, C38A, C76A, S105K, C127A) (human) (UniProt Q14116)
[27] = biological target: IL-18 polypeptide of SEQ ID NO: 1 (native sequence) (human) (UniProt Q14116)
IL-18 polypeptide of SEQ ID NO: 1 (native sequence) (human), sequence (Q14116 37-193): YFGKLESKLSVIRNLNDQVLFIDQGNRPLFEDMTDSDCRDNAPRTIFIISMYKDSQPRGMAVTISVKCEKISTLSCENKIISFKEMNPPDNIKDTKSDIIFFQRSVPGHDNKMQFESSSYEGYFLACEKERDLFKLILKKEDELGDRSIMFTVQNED

IL-18 polypeptide C150 (V11I, T34A, C38A, K53A, C76A, C127A) (human), sequence (Q14116 37-193 V47I/T70A/C74A/K89A/C112A/C163A): as the sequence (Q14116 37-193) above, with V11I, T34A, C38A, K53A, C76A, C127A counted along it
IL-18 polypeptide C146, SEQ ID NO: 68 (V11I, C38A, M51G, K53A, C76A, C127A) (human), sequence (Q14116 37-193 V47I/C74A/M87G/K89A/C112A/C163A): as the sequence (Q14116 37-193) above, with V11I, C38A, M51G, K53A, C76A, C127A counted along it
IL-18 polypeptide C154 (V11I, E31A, D37A, C38A, K53A, C76A, C127A) (human), sequence (Q14116 37-193 V47I/E67A/D73A/C74A/K89A/C112A/C163A): as the sequence (Q14116 37-193) above, with V11I, E31A, D37A, C38A, K53A, C76A, C127A counted along it
IL-18 polypeptide C168 (V11I, C38A, C76A, S105K, C127A) (human), sequence (Q14116 37-193 V47I/C74A/C112A/S141K/C163A): as the sequence (Q14116 37-193) above, with V11I, C38A, C76A, S105K, C127A counted along it
IL-18 polypeptide C149 (V11I, E31A, C38A, K53A, C76A, C127A) (human), sequence (Q14116 37-193 V47I/E67A/C74A/K89A/C112A/C163A): as the sequence (Q14116 37-193) above, with V11I, E31A, C38A, K53A, C76A, C127A counted along it
IL-18 polypeptide C163 (V11I, C38A, C76A, Q103K, C127A) (human), sequence (Q14116 37-193 V47I/C74A/C112A/Q139K/C163A): as the sequence (Q14116 37-193) above, with V11I, C38A, C76A, Q103K, C127A counted along it
IL-18 polypeptide C166 (V11I, C38A, S55T, C76A, C127A) (human), sequence (Q14116 37-193 V47I/C74A/S91T/C112A/C163A): as the sequence (Q14116 37-193) above, with V11I, C38A, S55T, C76A, C127A counted along it
IL-18 polypeptide C165 (V11I, C38A, S55R, C76A, C127A) (human), sequence (Q14116 37-193 V47I/C74A/S91R/C112A/C163A): as the sequence (Q14116 37-193) above, with V11I, C38A, S55R, C76A, C127A counted along it
IL-18 polypeptide C145 (V11I, C38A, K53A, S55A, C76A, C127A) (human), sequence (Q14116 37-193 V47I/C74A/K89A/S91A/C112A/C163A): as the sequence (Q14116 37-193) above, with V11I, C38A, K53A, S55A, C76A, C127A counted along it
IL-18 polypeptide C152 (V11I, S36A, C38A, K53A, C76A, C127A) (human), sequence (Q14116 37-193 V47I/S72A/C74A/K89A/C112A/C163A): as the sequence (Q14116 37-193) above, with V11I, S36A, C38A, K53A, C76A, C127A counted along it
IL-18 polypeptide C147 (V11I, C38A, K53A, D54A, C76A, C127A) (human), sequence (Q14116 37-193 V47I/C74A/K89A/D90A/C112A/C163A): as the sequence (Q14116 37-193) above, with V11I, C38A, K53A, D54A, C76A, C127A counted along it
IL-18 polypeptide C153 (V11I, D37A, C38A, K53A, C76A, C127A) (human), sequence (Q14116 37-193 V47I/D73A/C74A/K89A/C112A/C163A): as the sequence (Q14116 37-193) above, with V11I, D37A, C38A, K53A, C76A, C127A counted along it
IL-18 polypeptide C160 (V11I, C38A, K53A, C76A, D110A, C127A) (human), sequence (Q14116 37-193 V47I/C74A/K89A/C112A/D146A/C163A): as the sequence (Q14116 37-193) above, with V11I, C38A, K53A, C76A, D110A, C127A counted along it
IL-18 polypeptide C158 (V11I, C38A, K53A, C76A, G108A, C127A) (human), sequence (Q14116 37-193 V47I/C74A/K89A/C112A/G144A/C163A): as the sequence (Q14116 37-193) above, with V11I, C38A, K53A, C76A, G108A, C127A counted along it
IL-18 polypeptide C148 (F2A, V11I, C38A, K53A, C76A, C127A) (human), sequence (Q14116 other isoform, or with tags, fused parts or gaps V11I C38A K53A C76A C127A V11I C38A K53A C76A C127A): as the sequence (Q14116 37-193) above, with F2A, V11I, C38A, K53A, C76A, C127A counted along it
IL-18 polypeptide C156 (V11I, C38A, N41A, K53A, C76A, C127A) (human), sequence (Q14116 37-193 V47I/C74A/N77A/K89A/C112A/C163A): as the sequence (Q14116 37-193) above, with V11I, C38A, N41A, K53A, C76A, C127A counted along it
IL-18 polypeptide C155 (V11I, C38A, D40A, K53A, C76A, C127A) (human), sequence (Q14116 37-193 V47I/C74A/D76A/K89A/C112A/C163A): as the sequence (Q14116 37-193) above, with V11I, C38A, D40A, K53A, C76A, C127A counted along it
IL-18 polypeptide C144 (V11I, C38A, K53A, T63A, C76A, C127A) (human), sequence (Q14116 37-193 V47I/C74A/K89A/T99A/C112A/C163A): as the sequence (Q14116 37-193) above, with V11I, C38A, K53A, T63A, C76A, C127A counted along it
IL-18 polypeptide C157 (V11I, C38A, K53A, C76A, C127A, D132A) (human), sequence (Q14116 37-193 V47I/C74A/K89A/C112A/C163A/D168A): as the sequence (Q14116 37-193) above, with V11I, C38A, K53A, C76A, C127A, D132A counted along it
IL-18 polypeptide C162 (K8E, V11I, C38A, C76A, Q103R, C127A) (human), sequence (Q14116 other isoform, or with tags, fused parts or gaps V11I C38A C76A Q103R C127A V11I C38A C76A Q103R C127A): as the sequence (Q14116 37-193) above, with K8E, V11I, C38A, C76A, Q103R, C127A counted along it
IL-18 polypeptide C151 (V11I, D35A, C38A, K53A, C76A, C127A) (human), sequence (Q14116 37-193 V47I/D71A/C74A/K89A/C112A/C163A): as the sequence (Q14116 37-193) above, with V11I, D35A, C38A, K53A, C76A, C127A counted along it
IL-18 polypeptide C167 (V11I, C38A, C76A, S105I, C127A) (human), sequence (Q14116 37-193 V47I/C74A/C112A/S141I/C163A): as the sequence (Q14116 37-193) above, with V11I, C38A, C76A, S105I, C127A counted along it
IL-18 polypeptide C159 (V11I, C38A, K53A, C76A, H109A, C127A) (human), sequence (Q14116 37-193 V47I/C74A/K89A/C112A/H145A/C163A): as the sequence (Q14116 37-193) above, with V11I, C38A, K53A, C76A, H109A, C127A counted along it
IL-18 polypeptide C164 (V11I, C38A, S55H, C76A, C127A) (human), sequence (Q14116 37-193 V47I/C74A/S91H/C112A/C163A): as the sequence (Q14116 37-193) above, with V11I, C38A, S55H, C76A, C127A counted along it
IL-18 polypeptide C143 (V11I, C38A, K53A, C76A, C127A) (human), sequence (Q14116 37-193 V47I/C74A/K89A/C112A/C163A): as the sequence (Q14116 37-193) above, with V11I, C38A, K53A, C76A, C127A counted along it
IL-18 polypeptide C161 (K8R, V11I, C38A, C76A, Q103E, C127A) (human), sequence (Q14116 other isoform, or with tags, fused parts or gaps V11I C38A C76A Q103E C127A V11I C38A C76A Q103E C127A): as the sequence (Q14116 37-193) above, with K8R, V11I, C38A, C76A, Q103E, C127A counted along it

Fc-fused human IL-18 binding protein isoform a (IL-18BPa) (from UniProt O95998 31-194) (Fc fusion)
IC50 of IL-18BPa inhibition of IFNγ induction in NK-92 cells [1]: 7.52 nM | IC50 of IL-18BPa inhibition of IFNγ induction in NK-92 cells [2]: 10.2 nM | IC50 of IL-18BPa inhibition of IFNγ induction in NK-92 cells [3]: 733 nM | IC50 of IL-18BPa inhibition of IFNγ induction in NK-92 cells [4]: 47.6 nM | IC50 of IL-18BPa inhibition of IFNγ induction in NK-92 cells [5]: 5.05 nM | IC50 of IL-18BPa inhibition of IFNγ induction in NK-92 cells [6]: 1.17 nM | IC50 of IL-18BPa inhibition of IFNγ induction in NK-92 cells [7]: 21.3 nM | IC50 of IL-18BPa inhibition of IFNγ induction in NK-92 cells [8]: 3.62 nM | IC50 of IL-18BPa inhibition of IFNγ induction in NK-92 cells [9]: 7.85 nM | IC50 of IL-18BPa inhibition of IFNγ induction in NK-92 cells [10]: 2.22 nM | IC50 of IL-18BPa inhibition of IFNγ induction in NK-92 cells [11]: 3.71 nM | IC50 of IL-18BPa inhibition of IFNγ induction in NK-92 cells [12]: 3.23 nM | IC50 of IL-18BPa inhibition of IFNγ induction in NK-92 cells [13]: 0.681 nM | IC50 of IL-18BPa inhibition of IFNγ induction in NK-92 cells [14]: 6.08 nM | IC50 of IL-18BPa inhibition of IFNγ induction in NK-92 cells [15]: 3.98 nM | IC50 of IL-18BPa inhibition of IFNγ induction in NK-92 cells [16]: 1.81 nM | IC50 of IL-18BPa inhibition of IFNγ induction in NK-92 cells [17]: 3.18 nM | IC50 of IL-18BPa inhibition of IFNγ induction in NK-92 cells [18]: 1.07 nM | IC50 of IL-18BPa inhibition of IFNγ induction in NK-92 cells [19]: 7.29 nM | IC50 of IL-18BPa inhibition of IFNγ induction in NK-92 cells [20]: 0.823 nM | IC50 of IL-18BPa inhibition of IFNγ induction in NK-92 cells [21]: 0.456 nM | IC50 of IL-18BPa inhibition of IFNγ induction in NK-92 cells [22]: 0.885 nM | IC50 of IL-18BPa inhibition of IFNγ induction in NK-92 cells [23]: 0.44 nM | IC50 of IL-18BPa inhibition of IFNγ induction in NK-92 cells [24]: 0.809 nM | IC50 of IL-18BPa inhibition of IFNγ induction in NK-92 cells [25]: 0.176 nM | IC50 of IL-18BPa inhibition of IFNγ induction in NK-92 cells [26]: 5.85 nM | IC50 of IL-18BPa inhibition of IFNγ induction in NK-92 cells [27]: 1.47 nM
